Measurements reported in IntAct's records for PubMed 11604410.

B1: Serine protease HTRA2, mitochondrial (Mus musculus), Q9JIY5 (parent)
chain: MAALKAGRGANWSLRAWRALGGIFWRKPPLLAPDLRALLTSGTPDSQIWMTYGTPSLPAQVPEGFLASRADLTSRTPDLWARLNVGTSGSSDQEARRSPGSRRREWLAVAVGAGGAVVLLLWGWGRGLSTVLAAVPAPPPTSPRSQYNFIADVVEKTAPAVVYIEILDRHPFSGREVPISNGSGFVVASDGLIVTNAHVVADRRRVRVRLPSGDTYEAMVTAVDPVADIATLRIQTKEPLPTLPLGRSADVRQGEFVVAMGSPFALQNTITSGIVSSAQRPARDLGLPQNNVEYIQTDAAIDFGNSGGPLVNLDGEVIGVNTMKVTAGISFAIPSDRLREFLHRGEKKNSWFGTSGSQRRYIGVMMLTLTPSILIELQLREPSFPDVQHGVLIHKVILGSPAHRAGLRPGDVILAIGEKLAQNAEDVYEAVRTQSQLAVRIRRGSETLTLYVTPEVTE
B2: Diablo IAP-binding mitochondrial protein (Mus musculus), Q9JIQ3 (parent)
chain: MAALRSWVTRSVCSLFRYRQRFPVLANSKKRCFSELIKPWHKTVLTGFGMTLCAVPIAQKSEPQSLSNEALMRRAVSLVTDSTSTFLSQTTYALIEAITEYTKAVYTLVSLYRQYTSLLGKMNSQEEDEVWQVIIGARVEMTSKQQEYLKLETTWMTAVGLSEMAAEAAYQTGADQASITARNHIQLVKSQVQEVRQLSQKAETKLAEAQTKELHQKAQEVSDEGADQEEEAYLRED

Variants of: B1
Conditions: with xiap_human XIAP

| effect of a mutation on the interaction | Variant |
| --- | --- |
| disrupting interaction | R144G |

Variants of: B1
Conditions: with xiap_human XIAP
Remark: another data set of the same source

| effect of a mutation on the interaction | Variant |
| --- | --- |
| increasing interaction | Y147I |

Variants of: B2
Conditions: with xiap_mouse Xiap

| effect of a mutation on the interaction | Variant |
| --- | --- |
| disrupting interaction | A54G |
